Measurements from paper PMC5563081, “Modulating Protein-Protein Interactions of the Mitotic Polo-like Kinases to Target Mutant KRAS” (Cell Chemical Biology, 2017).
Non-standard residues stand in square brackets, D forms with d. No end group written: not given here. *: point of attachment. TAMRA = tetramethyl-6-carboxy-rhodamine, CN(C)c1ccc2c(-c3cc(C(=O)*)ccc3C(=O)[O-])c3ccc(N(C)C)cc3[o+]c2c1; pT = C[C@@H](OP(=O)(O)O)[C@H](N)C(=O)O

Biological target: T1, PLK2-PBD(356-681), Polo-box domain of human Polo-like kinase 2 (human, UniProt Q9NYY3 356-681)
T1 construct: Polo-like kinase 2 (PLK2), human, Polo-box domain, residues 356-681; also called PLK2 PBD (aa356-681); PLK2 PDB; source: E. coli C41, purified (GST-Sepharose column, cleaved on column with PreScission protease, gel chromatography)
T1 sequence (looked up): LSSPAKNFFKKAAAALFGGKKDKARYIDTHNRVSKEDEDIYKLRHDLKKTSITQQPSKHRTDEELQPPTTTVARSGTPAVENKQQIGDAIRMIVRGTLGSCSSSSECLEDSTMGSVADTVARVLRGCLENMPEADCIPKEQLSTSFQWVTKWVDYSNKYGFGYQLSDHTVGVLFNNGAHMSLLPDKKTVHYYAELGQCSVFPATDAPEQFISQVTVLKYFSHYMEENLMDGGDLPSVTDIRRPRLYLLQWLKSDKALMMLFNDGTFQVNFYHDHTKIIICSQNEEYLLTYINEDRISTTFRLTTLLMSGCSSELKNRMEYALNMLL
Assay: fluorescence polarisation; competition format: TAMRA-labelled phosphopeptide 10 nM, PBD 84 nM (2.5 ng/ul), PBS pH 7.4 plus 0.03% tween; compound and PBD incubated together at 22 C for 1 hour before the peptide was added; same procedure for PLK2 PBD with its own peptide
Conditions: both partners purified

B1: TAMRA-MAGPMQTS(pThreonine)PKNGAKK, consensus binding phosphopeptide used with the PLK2 PBD (peptide)
peptide: {TAMRA}-MAGPMQTS[pT]PKNGAKK
notes: the second T of 'TST' is phosphothreonine; also called phosphopeptide substrate; source: bought: Designer Bioscience
binding result: binds
